{"source": "patent US20250163144A1", "key": {"CD38 (human) [1]": {"biological_target": "CD38 (human) (UniProt P28907)", "assay": "flow cytometry on KMS-12 cells"}, "CD38 (human) [2]": {"biological_target": "CD38 (human) (UniProt P28907)", "assay": "flow cytometry on KMS-18 cells"}}, "data": [{"substance": "Anti-CD38 HIT2 mAb (antibody)", "values": [{"measurement": "MFI", "setting": "CD38 (human) [1]", "value": 62.4, "unit": "MFI"}, {"measurement": "MFI", "setting": "CD38 (human) [2]", "value": 44.5, "unit": "MFI"}]}]}
